Results from article PMC314469, “Protein Interaction Networks by Proteome Peptide Scanning” (PLoS Biology, 2004).

T1: Boi1 SH3 (BOI1_YEAST), P38041
T1 chain: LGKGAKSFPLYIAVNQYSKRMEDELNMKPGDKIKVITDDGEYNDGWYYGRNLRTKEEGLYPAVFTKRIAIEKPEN

T2: Boi2 SH3 (BOI2_YEAST), P39969
T2 chain: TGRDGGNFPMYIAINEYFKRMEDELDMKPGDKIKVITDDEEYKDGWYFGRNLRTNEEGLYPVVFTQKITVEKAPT

T3: Rvs167 SH3 (RV167_YEAST), P39743
T3 chain: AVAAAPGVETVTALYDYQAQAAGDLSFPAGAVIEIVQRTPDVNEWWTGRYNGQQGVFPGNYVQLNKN

T4: Yfr024 SH3 (LSB3_YEAST), P43603
T4 chain: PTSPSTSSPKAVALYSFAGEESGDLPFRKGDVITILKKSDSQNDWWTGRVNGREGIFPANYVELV

T5: Yhr016c SH3 (YSC84_YEAST), P32793
T5 chain: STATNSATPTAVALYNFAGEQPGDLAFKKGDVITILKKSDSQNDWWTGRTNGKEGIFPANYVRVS


Experiments:
Experiment in all cases: SPOT array
[1] = biological target: T1, Boi1 SH3 (BOI1_YEAST), P38041
[2] = biological target: T2, Boi2 SH3 (BOI2_YEAST), P39969
[3] = biological target: T3, Rvs167 SH3 (RV167_YEAST), P39743
[4] = biological target: T4, Yfr024 SH3 (LSB3_YEAST), P43603
[5] = biological target: T5, Yhr016c SH3 (YSC84_YEAST), P32793

normalised SPOT signal, Boehringer light units (BLU); mean over the file's lines of this peptide [1]	normalised SPOT signal, Boehringer light units (BLU); mean over the file's lines of this peptide [2]	normalised SPOT signal, Boehringer light units (BLU); mean over the file's lines of this peptide [3]	normalised SPOT signal, Boehringer light units (BLU); mean over the file's lines of this peptide [4]	normalised SPOT signal, Boehringer light units (BLU); mean over the file's lines of this peptide [5]	Binder
90.1	134	48.3	852	280	VMKPKSPDKEFFDA [YJR066W 1483-1496]
253	83.6	58	413	387	VMVPHLPGKILLSN [YOR357C 104-117]
61.9	17	23.1	1200	425	VPEPSKPSRLLLVR [YNL034W 549-562]
16.2	12.4	19.5	136	157	VPDPSTPSKPNLEV [YML016C 62-75]
110	16.2	1.8	648	151	VFSPTNPLRIKIAR [YGR217W 326-339]
294	17.8	124	980	206	VPPPNVPKKDKREV [YBR058C 659-672]
494	232	3250	23000	3880	VPRPSPPIRRKSST [YNL106C 1070-1083]
44.6	41.9	59	1090	246	VKEPSFPSRSAFSP [YMR191W 432-445]
116	84	5.8	238	127	VLEPSKPYKKNPFM [YBR284W 663-676]
75.3	232	176	1120	358	VIMPEGPRKSVSMA [YJL005W 424-437]
44.3	49.9	43.5	32.9	381	VHGPGIPMKSLEVA [YBR297W 381-394]
90.9	88.2	49.8	5310	314	VKKPARPWRAKPGQ [YKL220C 450-463]

The next lines start with the binder.

Binder	normalised SPOT signal, Boehringer light units (BLU); mean over the file's lines of this peptide [1]	normalised SPOT signal, Boehringer light units (BLU); mean over the file's lines of this peptide [2]	normalised SPOT signal, Boehringer light units (BLU); mean over the file's lines of this peptide [3]	normalised SPOT signal, Boehringer light units (BLU); mean over the file's lines of this peptide [4]	normalised SPOT signal, Boehringer light units (BLU); mean over the file's lines of this peptide [5]
VHGPVIPMKALEIA [YPR196W 383-396]	56.4	27.7	27.7	138	92.9
VKHPMKPFRLMLTD [YGL194C 43-56]	101	203	358	3950	3110
VIRPGVPTKFTKKQ [YDL171C 1275-1288]	121	63.3	58.1	202	125
VILPQIPPKLTFIL [YOR067C 374-387]	107	10.1	10	812	158
VHDPNIPLRPKEII [YGR184C 643-656]	22.9	57.8	51.5	562	110
VNTPREPVRSSSKI [YJL076W 1015-1028]	75.8	30.9	69.7	910	99.4
VGNPEGPEKPNKKF [YKL060C 315-328]	255	50.6	34.3	186	131
VKRPLSPTRINGKS [YDR379W 155-168]	208	49	445	2290	499
VHGPGVPVKTLEIA [YGR288W 386-399]	114	56.6	52.7	43.4	116
VPSPGLPEKVNEKS [YLR119W 34-47]	80.3	25.5	-0	141	217
